In publication PMC5512444 (Structure (London, England : 1993), 2017):
Read-outs that look alike come from different tables or passages of the source.

How the values were obtained:
Ube2g2 (Homo sapiens) [1] = biological target: Ube2g2 (Homo sapiens) (UniProt P60604); details: cited from earlier work
Ube2g2 (Homo sapiens) [2] = biological target: Ube2g2 (Homo sapiens) (UniProt P60604); details: cited from earlier work; remark: listed apart in the source
Ube2g2 (Homo sapiens) [3] = biological target: Ube2g2 (Homo sapiens) (UniProt P60604); details: cited from earlier work; remark: listed apart in the source
Ube2g2 (Homo sapiens) [4] = biological target: Ube2g2 (Homo sapiens) (UniProt P60604); details: cited from earlier work; remark: listed apart in the source
Ube2g2 (wild type) = biological target: T1, Ube2g2 (wild type) (human, UniProt P60604 1-165); experiment: NMR 15N heteronuclear NOE of the complex compared with the free protein
T1 sequence: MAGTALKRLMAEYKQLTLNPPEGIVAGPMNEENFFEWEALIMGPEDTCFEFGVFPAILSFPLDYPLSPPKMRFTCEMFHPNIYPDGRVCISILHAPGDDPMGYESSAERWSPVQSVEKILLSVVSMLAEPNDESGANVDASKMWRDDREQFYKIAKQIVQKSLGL

Y103G-Ube2g2 = biological target: T2, Y103G-Ube2g2 (human, UniProt P60604 1-165, Y103G); experiment: ITC
T2 sequence: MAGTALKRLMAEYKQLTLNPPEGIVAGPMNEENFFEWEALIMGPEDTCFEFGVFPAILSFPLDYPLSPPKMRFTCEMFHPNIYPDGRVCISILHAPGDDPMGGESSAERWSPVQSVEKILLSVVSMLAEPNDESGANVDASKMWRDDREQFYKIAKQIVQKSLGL

C89K-Ube2g2 = biological target: T3, C89K-Ube2g2 (human, UniProt P60604 1-165, C89K); experiment: NMR 15N CPMG relaxation dispersion of the complex compared with the free protein
T3 sequence: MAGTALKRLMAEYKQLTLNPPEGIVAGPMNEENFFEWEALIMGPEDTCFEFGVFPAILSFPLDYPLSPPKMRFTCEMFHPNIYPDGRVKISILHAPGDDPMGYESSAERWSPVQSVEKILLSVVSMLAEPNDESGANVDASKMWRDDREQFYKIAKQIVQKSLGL

gp78 RING (from UniProt Q9UKV5)
Kd (Ube2g2 (Homo sapiens) [1]): 144000 nM | Kd (Ube2g2 (Homo sapiens) [2]): 3000 nM

gp78 G2BR (from UniProt Q9UKV5)
Kd (Ube2g2 (Homo sapiens) [3]): 21 nM

gp78 RING-G2BR (from UniProt Q9UKV5)
Kd (Ube2g2 (Homo sapiens) [4]): 38 nM

WSADERQRMLVQRKDELLQQARKRFLNK [G2BR peptide of gp78 (Ube2g2 binding region)]
binding result (Ube2g2 (wild type)): binds | Kd (Y103G-Ube2g2): 59 ± 6 nM | dH (Y103G-Ube2g2): -39.5 ± 0.4 kcal/mol | stoichiometry N (Y103G-Ube2g2): 0.95

B1: RING-G2BR fusion protein of gp78 (domain or fragment, human)
chain: KNYLRVVGNMEARFAVATPEELAVNNDDCAICWDSMQAARKLPCGHLFHNSCLRSWLEQDTSCPTCRMSLNIADNNRVREEGGGGGGGSSGSSGGSGGGSGSSSGGGGGSGGGSGGGGGGGADERQRMLVQRKDELLQQARKRFLNK
binding result (C89K-Ube2g2): binds
